Tests used:
[1] = system: primary embryonic rat neurons infected with adenovirus; assay: Aβ production by primary embryonic rat neurons infected with adenovirus (SEAP-APP); assay type: cell-based; settings: total Aβ in conditioned media, 5 h; concentration (TOFA 200 μM, cerulenin 200 μM, etomoxir 40 μM, peptide YY (3-36) 25 μM, CNTF 25 μM, leptin 400 ng/ml); mean ± SEM; NS = non-significant
Source text: Cell cultures, Treatments, Antibodies and Immunoassays. SY5Y cells (human neuroblastoma) were maintained in culture as described (Johnsingh et al., FEBS Lett. 465:53-8 (2000)). Primary neural cultures were obtained from ε16 rat embryonic cortex, as described (Shimoda et al., 1992. Brain Res. 586:319-31 (1992)). These were either grown as mixed cultures (Johnsingh et al., FEBS Lett. 465:53-8 (2000)) or grown under conditions that favor the isolation and proliferation of astrocytes (Takeshima et al., J Neurosci. 14:4769-79 (1994)).
Neuro2a (mouse neuroblastoma) stably transfected with hyg-sa134, a pcDNA3.1/Hygro plasmid (Invitrogen, CA) modified to express a fusion protein of secreted alkaline phosphatase (SEAP) and a fragment of APP consisting of the C-terminal 134 amino acids (“CAPP134”) (SEQ ID NO:10) were maintained in culture as described ([…]) in the presence of 400 μg/ml of hygromycin. SEQ ID NO: 11 is the DNA sequence of the entire hygsa134 vector, which was derived from the pcDNA3.1/Hygro vector by genetic manipulation to insert the DNA sequences for SEAP and CAPP134. The SEAP-CAPP cDNA insert from hyg-sa134 was also subcloned into an adenoviral vector using the Adeno Vator system (Qbiogene, Calif.). The DNA sequence for SEAP (corresponding to nucleotides 981-2441 of hyg-sa134) (SEQ ID NO: 9) is located 5′ to the DNA sequence (SEQ ID NO: 12) coding for CAPP134 (SEQ ID NO: 10).
SY5Y and hyg-sa134-Neuro2a cells were treated at 80% confluency (see below). Primary neural cultures from mouse embryos were allowed to grow for 6-12 days following plating and prior to viral infection and treatments.
Human (SYSY) or mouse neuroblastoma cell-lines (Neuro2a) commonly are used to study amyloid β metabolism in vitro. Neuro2a cells are stably transfected with hyg-sa134 (SEQ ID NO: 11), a plasmid driving the expression of a recombinant fusion protein containing the human C-terminal fragment of APP of about 134 amino acids, CAPP134 (SEQ ID NO: 10). Here, 5Y5Y or Neuro2a cultures were treated for 2 or 5 h with about 100 ng/ml or about 400 ng/ml leptin (FIG. 4a, 4b). Similarly, primary neurons from embryonic rat brain, infected with an adenovirus to direct the expression of CAPP134 (SEQ ID NO:10) also were treated according to the same regimen.

[2] = system: SY5Y cells; assay: 125I-Aβ uptake by SY5Y cells (apoE-dependent); assay type: cell-based, human
Procedure: Preparation of ApoE and binding with ^125I-Aβ. ApoE was isolated from the conditioned media of human embryonic kidney (HEK-293) cells stably-transfected with human apoE (having the ε3 allele or the ε4 allele) cDNA (Tezapsidis et al., FASEB J. 17:1322-1324 (2003)). These preparations, while usually poor in lipid, are fully functional for uptake experiments. ApoE then was pre-incubated with ^125I-Aβ overnight at 37° C. (Aβ/ApoE: 1/50 w/w) as described (Tezapsidis et al., FASEB J. 17:1322-1324 (2003)).
Aβ-uptake by SY5Y cells. Human ^125I-Aβ (iodinated at Tyr-10, Amersham Biosciences, IM 294) uptake was measured following addition of 0.1 nM ^125I-Aβ40 (SEQ ID NO: 4) to confluent SY5Y cells (60,000 cpm/ml) in the presence or absence of 100 ng/ml or 400 ng/ml leptin also included in a 24 h pre-incubation period. ^125I-Aβ was either added alone or was previously incubated with apoε3. In controls, Receptor Associated Protein (“RAP”, 1 μM) was added together with Aβ or the Aβ/apoE complex. RAP is an antagonist of a number of lipoprotein receptors (LaDu et al., Neurochem Int. 39:427-34 (2001)). After 24 h, the media were collected and subjected to scintillation counting for γ-Iradiation (Kang et al., 2000. J Clin Invest. 106:1159-66 (2000)). The amount of radioactivity was measured in both the trichloroacetic acid (10%) TCA pellets (representing intact Aβ) and the corresponding supernatants (representing degraded Aβ). 96.5±8.2% (mean±s.e.m., n=4 experiments, triplicate determinations) of the radioactivity found in the medium could be recovered in the TCA pellet and represented intact or oligomeric Aβ (not shown), when Aβ was pre-incubated with apoE.
The amount of TCA-precipitable radioactivity in the soluble fraction of cell lysates was compared to that in the total lysates, the ratio of which was typically about 0.8 to about 0.9 (not shown), to further verify that radioactivity was reduced in the media as a reflection of Aβ uptake by the cells, rather than due to non-specific binding to the extracellular surface of membranes or oligomerization/aggregation of Aβ.
In panel (a), Aβ uptake was measured in SY5Y cells following their treatment at 0 ng/ml, 100 ng/ml or 400 ng/ml leptin. Uptake also was measured in cells previously transfected with antisense DNA for PS1 as described (Tezapsidis et al., FASEB J. 17:1322-1324(2003)) (black). Uptake is expressed as the percentage of that observed with Aβ pre-incubated with apoε3 (medium gray) in the absence of leptin (first set of columns). […] Leptin induced a dose-dependent increase in Aβ uptake with a preference for apoε3 (medium gray) over apoε4 (light gray). In panel (b), SY5Y cells were pre-treated with […] cholesterol (+Chol) or normal medium (−Chol). Then Aβ uptake was measured following its preincubation with apoε3 (ε3) or apoε4 (ε4) in the absence (black) or the presence (gray) of about 400 ng/ml leptin. Cells were more resistant to taking-up Aβ when loaded with cholesterol. […] In panel (c), SY5Y cells were transiently transfected with SREBP-1 or SREBP-2 cDNA or an empty vector (Control). Then Aβ was measured in the medium by ELISAs (Figueiredo-Pereira et al., J Neurochem. 72:1417-22 (1999)) following treatment with (+) or without (−) leptin. […] In panel (d), Aβ uptake was measured in SY5Y cells prepared as in panel (c). Uptake was performed using Aβ/apoε3 complexes.

B1: Leptin: peptide hormone controlling adaptive metabolic mechanisms to energy availability; leptin (Harbor-UCLA) in vitro, recombinant murine leptin in mice (protein, UniProt P41160 22-167, looked up)
Leptin: VPIQKVQDDTKTLIKTIVTRINDISHTQSVSAKQRVTGLDFIPGLHPILSLSKMDQTLAVYQQVLTSLPSQNVLQIANDLENLRDLLHLLAFSKSCSLPQTSGLQKPESLDGVLEASLYSTEVVALSRLQGSLQDILQQLDVSPEC
**Q.** Which results are given for B1?
**A.** Neurons/SEAPP-APP Aβ (% control) [1]: 35 ± 4 % control; uptake of apoE-Aβ ([2]; 100 ng/ml or 400 ng/ml leptin, 24 h pre-incubation and uptake): increased the uptake of apoE-Aβ in a dose-dependent fashion; Aβ uptake phenotype of cholesterol-loaded cells ([2]; about 400 ng/ml leptin during cholesterol pre-incubation and during uptake): almost completely reversed

— US8227408B2, “Leptin as an anti-amyloidogenic biologic and methods for delaying the onset and reducing Alzheimer's disease-like pathology” (Neurotez, Inc., priority 2005, dated 2012)
